Test results published in IntAct's records for PubMed 9468140.

B1: Retinoblastoma-associated protein (Homo sapiens), P06400 (parent)
chain: MPPKTPRKTAATAAAAAAEPPAPPPPPPPEEDPEQDSGPEDLPLVRLEFEETEEPDFTALCQKLKIPDHVRERAWLTWEKVSSVDGVLGGYIQKKKELWGICIFIAAVDLDEMSFTFTELQKNIEISVHKFFNLLKEIDTSTKVDNAMSRLLKKYDVLFALFSKLERTCELIYLTQPSSSISTEINSALVLKVSWITFLLAKGEVLQMEDDLVISFQLMLCVLDYFIKLSPPMLLKEPYKTAVIPINGSPRTPRRGQNRSARIAKQLENDTRIIEVLCKEHECNIDEVKNVYFKNFIPFMNSLGLVTSNGLPEVENLSKRYEEIYLKNKDLDARLFLDHDKTLQTDSIDSFETQRTPRKSNLDEEVNVIPPHTPVRTVMNTIQQLMMILNSASDQPSENLISYFNNCTVNPKESILKRVKDIGYIFKEKFAKAVGQGCVEIGSQRYKLGVRLYYRVMESMLKSEEERLSIQNFSKLLNDNIFHMSLLACALEVVMATYSRSTSQNLDSGTDLSFPWILNVLNLKAFDFYKVIESFIKAEGNLTREMIKHLERCEHRIMESLAWLSDSPLFDLIKQSKDREGPTDHLESACPLNLPLQNNHTAADMYLSPVRSPKKKGSTTRVNSTANAETQATSAFQTQKPLKSTSLSLFYKKVYRLAYLRLNTLCERLLSEHPELEHIIWTLFQHTLQNEYELMRDRHLDQIMMCSMYGICKVKNIDLKFKIIVTAYKDLPHAVQETFKRVLIKEEEYDSIIVFYNSVFMQRLKTNILQYASTRPPTLSPIPHIPRSPYKFPSSPLRIPGGNIYISPLKSPYKISEGLPTPTKMTPRSRILVSIGESFGTSEKFQKINQMVCNSDRVLKRSAEGSNPPKPLKKLRFDIEGSDEADGSKHLPGESKFQQKLAEMTSTRTRMQKQKMNDSMDTSNKEEK

Variants of: B1
Conditions: with hdac1_human HDAC1, Q13547
Chain of hdac1_human HDAC1, Q13547 (Q13547 whole entry): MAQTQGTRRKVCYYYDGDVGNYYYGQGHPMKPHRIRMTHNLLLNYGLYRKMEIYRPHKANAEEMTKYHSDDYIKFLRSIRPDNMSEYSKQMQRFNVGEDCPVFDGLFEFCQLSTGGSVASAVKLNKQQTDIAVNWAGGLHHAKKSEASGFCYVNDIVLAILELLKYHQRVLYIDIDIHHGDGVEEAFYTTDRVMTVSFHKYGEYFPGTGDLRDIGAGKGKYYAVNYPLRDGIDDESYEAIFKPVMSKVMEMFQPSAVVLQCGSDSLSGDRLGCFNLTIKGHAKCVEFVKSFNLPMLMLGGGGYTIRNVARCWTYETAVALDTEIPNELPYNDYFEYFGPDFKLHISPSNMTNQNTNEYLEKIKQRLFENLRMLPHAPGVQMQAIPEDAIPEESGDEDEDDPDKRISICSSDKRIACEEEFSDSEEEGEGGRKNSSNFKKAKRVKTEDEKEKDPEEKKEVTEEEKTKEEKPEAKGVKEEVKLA

Row | Variant | effect of a mutation on the interaction
1 | C706F | disrupting interaction
